Data on 3 substances can be found in PMC5395295.

For test [1], the target named is Mnemiopsis collagen IV NC1 domains (collagenase-solubilised NC1 hexamer) (Mnemiopsis (endogenous in whole ctenophore tissue)). Put plainly: SEC; collagenase digest of whole ctenophore tissue on Superdex 200 10/300 GL; elution compared with native, purified placental basement membrane NC1 hexamer run successively; fractions 12 mL to 16.4 mL blotted with NC1-specific monoclonal antibody (JK-2).

The target is the same in test [2]. Put plainly: SDS-PAGE under reducing and non-reducing conditions with Western blot; NC1 hexamer fractions from gel filtration; 12% gels, 5% beta-mercaptoethanol or none; for Beroe reduction in TBS with various concentrations of DTT (30 min, 37°C), alkylation with iodoacetamide, non-reducing SDS-PAGE; blot with JK-2. (In general: In western blotting, separated proteins are transferred to a membrane and probed.)

The target in test [3] is Pleurobrachia collagen IV NC1 domains (collagenase-solubilised NC1 hexamer) (Pleurobrachia (endogenous in whole ctenophore tissue)). Put plainly: SEC; collagenase digest of whole ctenophore tissue on Superdex 200 10/300 GL; elution compared with native, purified placental basement membrane NC1 hexamer run successively; fractions 12 mL to 16.4 mL blotted with NC1-specific monoclonal antibody (JK-2). (In general: In gel filtration, larger molecules generally elute earlier.)

The target is the same in test [4]. Description: SDS-PAGE under reducing and non-reducing conditions with Western blot; NC1 hexamer fractions from gel filtration; 12% gels, 5% beta-mercaptoethanol or none; for Beroe reduction in TBS with various concentrations of DTT (30 min, 37°C), alkylation with iodoacetamide, non-reducing SDS-PAGE; blot with JK-2.
The target in test [5] is Beroe collagen IV NC1 domains (collagenase-solubilised NC1 hexamer) (Beroe (endogenous in whole ctenophore tissue)). Description: SEC; collagenase digest of whole ctenophore tissue on Superdex 200 10/300 GL; elution compared with native, purified placental basement membrane NC1 hexamer run successively; fractions 12 mL to 16.4 mL blotted with NC1-specific monoclonal antibody (JK-2).

The target is the same in test [6]. Put plainly: SDS-PAGE under reducing and non-reducing conditions with Western blot; NC1 hexamer fractions from gel filtration; 12% gels, 5% beta-mercaptoethanol or none; for Beroe reduction in TBS with various concentrations of DTT (30 min, 37°C), alkylation with iodoacetamide, non-reducing SDS-PAGE; blot with JK-2.

“Mnemiopsis collagen IV NC1 domains (collagenase-solubilised NC1 hexamer)”: the results for the stoichiometry N in test [1] and in test [2] were 6 and 2, respectively.

“Pleurobrachia collagen IV NC1 domains (collagenase-solubilised NC1 hexamer)”: the stoichiometry N – broadly, the number of molecules, sites or subunits per partner or assembly – amounted to 6 in test [3] and 2 in test [4].

Regarding “Beroe collagen IV NC1 domains (collagenase-solubilised NC1 hexamer)”, the stoichiometry N in test [5] worked out at 6; in test [6], 2.
